Values of other authors in article PMC4440832.

Assays:
BMP7 (Homo sapiens) = BMP7 (Homo sapiens) (UniProt P18075); experiment: SPR
BMP5 (Homo sapiens) = BMP5 (Homo sapiens) (UniProt P22003); experiment: SPR
BMP6 (Homo sapiens) = BMP6 (Homo sapiens) (UniProt P22004); experiment: SPR
BMP2 (Homo sapiens) [1] = biological target: BMP2 (Homo sapiens) (UniProt P12643); experiment: SPR
BMP2 (Homo sapiens) [2] = biological target: BMP2 (Homo sapiens) (UniProt P12643); experiment: radioligand binding
BMP4 (Homo sapiens) [3] = biological target: BMP4 (Homo sapiens) (UniProt P12644); experiment: radioligand binding
Chain of BMP4 (Homo sapiens) (P12644 293-408): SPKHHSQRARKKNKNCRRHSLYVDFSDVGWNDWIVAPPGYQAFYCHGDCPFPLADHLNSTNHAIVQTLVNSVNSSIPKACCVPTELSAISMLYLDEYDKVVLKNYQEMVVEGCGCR

BMP4 (Homo sapiens) [4] = biological target: BMP4 (Homo sapiens) (UniProt P12644); experiment: SPR
netrin = netrin (UniProt O95631)

Chain of HJV (Q6ZVN8 36-400): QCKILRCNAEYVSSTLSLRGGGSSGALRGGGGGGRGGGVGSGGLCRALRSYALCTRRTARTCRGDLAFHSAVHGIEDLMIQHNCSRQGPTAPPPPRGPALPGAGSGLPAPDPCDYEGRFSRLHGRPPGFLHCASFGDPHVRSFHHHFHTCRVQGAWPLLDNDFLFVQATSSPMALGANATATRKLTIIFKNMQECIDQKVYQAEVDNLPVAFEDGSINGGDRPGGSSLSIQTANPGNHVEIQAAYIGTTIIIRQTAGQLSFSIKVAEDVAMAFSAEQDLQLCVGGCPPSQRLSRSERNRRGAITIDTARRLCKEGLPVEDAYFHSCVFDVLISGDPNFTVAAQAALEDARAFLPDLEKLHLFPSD
Chain of BMP2 (Homo sapiens) (P12643 283-396): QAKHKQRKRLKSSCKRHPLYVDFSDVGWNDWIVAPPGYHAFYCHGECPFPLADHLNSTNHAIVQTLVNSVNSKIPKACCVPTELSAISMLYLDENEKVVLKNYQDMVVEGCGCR
Chain of RGMb (Q6NW40 46-413): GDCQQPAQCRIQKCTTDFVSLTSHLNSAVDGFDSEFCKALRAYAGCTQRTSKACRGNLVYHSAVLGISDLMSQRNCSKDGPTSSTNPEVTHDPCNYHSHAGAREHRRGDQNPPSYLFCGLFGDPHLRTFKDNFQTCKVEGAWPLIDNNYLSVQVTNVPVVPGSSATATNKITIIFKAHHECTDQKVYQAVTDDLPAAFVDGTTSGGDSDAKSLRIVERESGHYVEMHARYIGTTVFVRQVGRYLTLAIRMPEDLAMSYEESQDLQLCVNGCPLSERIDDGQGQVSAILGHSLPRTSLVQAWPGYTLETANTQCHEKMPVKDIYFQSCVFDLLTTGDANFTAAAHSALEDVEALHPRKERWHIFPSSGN
Chain of RGMa.Fc ECD (Q6PCX7 48-427): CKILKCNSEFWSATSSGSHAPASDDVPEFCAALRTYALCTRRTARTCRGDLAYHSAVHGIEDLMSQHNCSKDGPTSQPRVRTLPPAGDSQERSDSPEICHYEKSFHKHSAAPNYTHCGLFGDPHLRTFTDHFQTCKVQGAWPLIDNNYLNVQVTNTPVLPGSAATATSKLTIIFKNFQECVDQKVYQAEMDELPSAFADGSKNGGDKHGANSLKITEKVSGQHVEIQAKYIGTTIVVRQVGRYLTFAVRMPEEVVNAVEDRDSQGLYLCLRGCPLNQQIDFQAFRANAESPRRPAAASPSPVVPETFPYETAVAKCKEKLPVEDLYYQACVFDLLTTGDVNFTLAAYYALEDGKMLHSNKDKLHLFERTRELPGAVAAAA
Chain of BMP6 (Homo sapiens) (P22004 375-513): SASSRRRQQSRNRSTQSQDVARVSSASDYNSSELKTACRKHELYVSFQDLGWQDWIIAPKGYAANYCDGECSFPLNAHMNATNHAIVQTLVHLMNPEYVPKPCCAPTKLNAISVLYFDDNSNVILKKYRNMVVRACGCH
Chain of RGMa (Q96B86 48-424): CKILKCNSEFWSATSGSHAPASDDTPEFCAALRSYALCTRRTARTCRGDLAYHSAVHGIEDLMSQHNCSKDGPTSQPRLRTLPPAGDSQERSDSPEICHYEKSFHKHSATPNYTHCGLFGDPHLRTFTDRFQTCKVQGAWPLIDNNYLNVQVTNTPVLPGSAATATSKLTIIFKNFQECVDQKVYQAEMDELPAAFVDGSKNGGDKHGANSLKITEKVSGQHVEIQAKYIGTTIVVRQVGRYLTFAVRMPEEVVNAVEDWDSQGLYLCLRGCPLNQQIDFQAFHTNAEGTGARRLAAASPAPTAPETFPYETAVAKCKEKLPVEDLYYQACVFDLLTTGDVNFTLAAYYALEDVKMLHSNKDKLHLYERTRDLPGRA
Chain of RGMb.Fc ECD (Q7TQ33 49-415): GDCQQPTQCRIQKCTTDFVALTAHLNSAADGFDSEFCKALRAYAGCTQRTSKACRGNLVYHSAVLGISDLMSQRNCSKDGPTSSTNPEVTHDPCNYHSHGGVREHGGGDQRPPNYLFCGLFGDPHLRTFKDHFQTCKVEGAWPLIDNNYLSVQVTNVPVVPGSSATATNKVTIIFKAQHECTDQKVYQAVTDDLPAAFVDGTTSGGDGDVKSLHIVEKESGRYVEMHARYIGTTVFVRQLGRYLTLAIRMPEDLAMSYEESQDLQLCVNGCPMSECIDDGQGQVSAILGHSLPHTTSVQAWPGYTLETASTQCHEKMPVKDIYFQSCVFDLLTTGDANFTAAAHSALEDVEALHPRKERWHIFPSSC
Chain of BMP7 (Homo sapiens) (P18075 293-431): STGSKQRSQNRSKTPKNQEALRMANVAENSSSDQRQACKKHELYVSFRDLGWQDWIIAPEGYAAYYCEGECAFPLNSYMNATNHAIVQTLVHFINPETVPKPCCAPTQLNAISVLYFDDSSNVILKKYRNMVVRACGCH
Chain of BMP5 (Homo sapiens) (P22003 317-454): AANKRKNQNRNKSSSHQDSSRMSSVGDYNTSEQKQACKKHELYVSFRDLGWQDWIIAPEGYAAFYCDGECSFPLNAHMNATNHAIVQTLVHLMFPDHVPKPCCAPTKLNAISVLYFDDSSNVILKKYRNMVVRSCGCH
Chain of neogenin (Q92859 34-1105): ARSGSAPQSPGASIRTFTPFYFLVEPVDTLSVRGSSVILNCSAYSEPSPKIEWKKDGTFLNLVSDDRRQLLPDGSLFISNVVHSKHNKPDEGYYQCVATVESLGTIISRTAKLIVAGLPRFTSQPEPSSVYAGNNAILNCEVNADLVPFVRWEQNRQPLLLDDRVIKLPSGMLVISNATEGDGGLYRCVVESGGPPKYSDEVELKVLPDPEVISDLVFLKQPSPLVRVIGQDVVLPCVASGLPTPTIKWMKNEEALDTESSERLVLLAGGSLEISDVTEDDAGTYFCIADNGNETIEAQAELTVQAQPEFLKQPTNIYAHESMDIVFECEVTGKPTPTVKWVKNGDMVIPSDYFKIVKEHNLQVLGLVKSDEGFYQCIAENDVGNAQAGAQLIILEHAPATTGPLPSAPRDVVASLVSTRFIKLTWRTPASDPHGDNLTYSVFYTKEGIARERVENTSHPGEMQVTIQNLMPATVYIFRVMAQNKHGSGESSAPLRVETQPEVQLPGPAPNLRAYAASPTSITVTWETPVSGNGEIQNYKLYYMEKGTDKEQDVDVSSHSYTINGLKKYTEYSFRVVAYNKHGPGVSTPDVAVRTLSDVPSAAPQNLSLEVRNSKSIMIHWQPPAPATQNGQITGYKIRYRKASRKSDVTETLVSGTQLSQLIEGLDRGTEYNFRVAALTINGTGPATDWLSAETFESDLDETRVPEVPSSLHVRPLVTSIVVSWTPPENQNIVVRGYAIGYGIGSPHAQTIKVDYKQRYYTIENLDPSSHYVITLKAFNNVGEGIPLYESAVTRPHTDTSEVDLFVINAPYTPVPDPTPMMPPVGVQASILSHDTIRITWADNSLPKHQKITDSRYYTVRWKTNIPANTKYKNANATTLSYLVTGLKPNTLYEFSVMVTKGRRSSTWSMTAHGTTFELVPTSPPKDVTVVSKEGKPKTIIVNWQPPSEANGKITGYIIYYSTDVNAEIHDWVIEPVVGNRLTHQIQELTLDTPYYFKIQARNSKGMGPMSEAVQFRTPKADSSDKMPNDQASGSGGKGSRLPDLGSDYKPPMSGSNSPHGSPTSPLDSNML

**Q.** Which Kd (BMP7 (Homo sapiens)) does the source give for HJV (from UniProt Q6ZVN8) here?
**A.** 20 nM

**Q.** And the Kd (BMP5 (Homo sapiens))?
**A.** 17 nM

**Q.** And the Kd (BMP6 (Homo sapiens))?
**A.** 8.1 nM

**Q.** Which Kd (BMP2 (Homo sapiens) [1]) does the source give for RGMa (from UniProt Q96B86) here?
**A.** 22 nM

**Q.** What about the Kd (BMP6 (Homo sapiens)) of the same substance?
**A.** 55 nM

**Q.** With RGMa.Fc ECD (from UniProt Q6PCX7) as the substance, how does the Kd (BMP2 (Homo sapiens) [2]) read?
**A.** 2.4 nM

**Q.** And the Kd (BMP4 (Homo sapiens) [3])?
**A.** 1.4 nM

**Q.** What about the Kd (BMP2 (Homo sapiens) [1]) of the same substance?
**A.** 2.46 nM

**Q.** For RGMb (from UniProt Q6NW40), which Kd (BMP2 (Homo sapiens) [1]) is on record?
**A.** 5.5 nM

**Q.** And the Kd (BMP4 (Homo sapiens) [4])?
**A.** 2.6 nM

**Q.** What about the Kd (BMP6 (Homo sapiens)) of the same substance?
**A.** 28 nM

**Q.** For RGMb.Fc ECD (from UniProt Q7TQ33), which Kd (BMP2 (Homo sapiens) [2]) is on record?
**A.** 1.5 nM

**Q.** For neogenin (from UniProt Q92859), which Kd (netrin) is on record?
**A.** 2 nM
